Results reported in the supplement of paper PMC10266784.

B1: library; numbered along this chain (parent)
chain: MAAAAAAAAEQQSSNGPVKKSMREKAVERRSVNKEHNSNFKAGYIPIDEDRLHKTGLRGRKGNLAICVIILLFILAVINLIITLVIWAVIRIGPNGCDSMEFHESGLLRFKQVSDMGVIHPLYKSTVGGRRNENLVITGNNQPIVFQQGTTKLSVENNKTSITSDIGMQFFDPRTQNILFSTDYETHEFHLPSGVKSLNVQKASTERITSNATSDLNIKVDGRAIVRGNEGVFIMGKTIEFHMGGNMELKAENSIILNGSVMVSTTRLPSSSSGDQLGSGDWVRYKLCMCADGTLFKVQVTSQNMGCQISDNPCGNTH

Variants of: B1
Experiment: SGCB cell-surface expression functional score (HA stain, bin4 vs bin1, normalised to synonymous) (log10 ratio); higher = more cell-surface SGCB (functional)
How it was run: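 Codon-saturation libraries of HA-tagged, YFP-fused human beta-sarcoglycan were lentivirally transduced at MOI <0.1 into HEK293 cells stably expressing alpha-, gamma- and delta-sarcoglycan. YFP-positive cells were sorted after 72 hours, grown 5–7 days, stained on ice with Alexa Fluor 647 anti-HA, fixed, sorted into four 5% intensity bins and amplicon-sequenced. The functional score is the log ratio of highest-bin to lowest-bin variant frequency, taken as the median over codons and duplicate transductions. Synonymous variants were scaled per section to mean 0, SD 0.5.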

SGCB cell-surface expression functional score (log10), by site and new letter:
V118: F -0.06 | K 0.64 | H -0.23 | S 0.19 | L -0.05 | D -0.11 | I 0.32 | W 0.32 | G -0.31 | N -0.97 | R -0.19 | E -0.21 | M -0.05 | Q -0.24 | C 0.74 | T 0.29 | Y -0.32 | A -0.02 | P -0.73
I119: P -0.94 | M 0.58 | E -1.16 | S -1.47 | A -0.49 | V -0.21 | Y -1.14 | G -0.96 | W -1.04 | C -0.49 | F -1.3 | D -0.97 | K -1.36 | R -0.88 | T -0.97 | L -0.19 | H -1.49 | N -1.15 | Q -1.26
S125: Q -0.7 | A -0.08 | G 0.56 | M 0.21 | P -0.99 | N -0.2 | V -0.88 | Y -0.79 | C 0.13 | K -0.93 | W -0.51 | L -1.2 | E -0.08 | R -1.09 | T -0.3 | F -0.45 | D 0.46 | H -0.37 | I -1.02
M116: T -0.8 | W -1.47 | D -0.59 | V -1.02 | S -1.38 | L 0.08 | I -1.03 | P -1.45 | G -1.48 | K -1.21 | H -1.7 | A -1.24 | N -1.13 | R -1.55 | E -1.47 | Y -1.63 | F 0.29 | C -1.02 | Q -1.26
V127: N -0.94 | E -0.65 | A -0.57 | P -0.5 | Y -1.55 | K -1.2 | Q -1.97 | S -1.34 | R -0.96 | C 0.53 | I -0.32 | H -1.08 | F -0.12 | G -0.79 | T -0.96 | W -1.36 | D -1.79 | L -0.04 | M -0.2
G117: D -0.32 | R -0.86 | S -0.38 | Q -1.06 | W -1.14 | Y -1.35 | L -1.42 | M -0.46 | V -1.36 | C -0.28 | E -0.94 | T -0.96 | F -1.46 | P -1.21 | A -0.7 | K -1.66 | N 0.02 | H -0.9 | I -1.22
T126: I 0.24 | N -0.36 | L -0.13 | A 0.13 | W 0.62 | Q -0.75 | K -0.52 | H 0.76 | M 0.29 | C 0.11 | E 0.37 | F 0.32 | G -0.18 | Y 0.74 | P -0.31 | S 0.02 | R -0.36 | V -0.28 | D -0.63
K124: A -0.41 | D -0.66 | Y 0.18 | V 0.39 | N 0.4 | F -0.08 | L 0.07 | I 0.1 | P 0.61 | E -0.5 | S 0.11 | M -0.6 | C 0.21 | T 0.31 | W -0.36 | Q 0.27 | G 0.08 | H -0.35 | R 0.3
Y123: H -0.35 | M -0.24 | R -0.37 | W 0.33 | F 0.2 | D -0.53 | L 0.02 | E 0.65 | V -0.18 | K -0.02 | P 0.1 | T -0.12 | G -0.11 | I -0.3 | Q 0.06 | C 0.25 | A 0.29 | N 0.64 | S 0.68
L122: H 0.55 | T 0.13 | G 0.45 | F -0.12 | N -0.12 | C 0.06 | Y 0.31 | D 0.28 | K -0.12 | E 0.35 | I 0.65 | A -0.03 | M 0.05 | S 0.31 | P -1.07 | W 0.1 | Q 0.48 | R 0.49 | V -0.14
P121: D -0.76 | C 0.36 | Q -0.72 | G -0.47 | M -0.6 | W -0.71 | N 0.38 | R -1 | S 0.12 | K -0.78 | T -0.36 | F 0.33 | A -0.17 | V 0.5 | E -1.17 | L 0.04 | H -0.14 | Y -0.96 | I -0.16
F110: S -1.18 | M -0.98 | T -1.1 | R -1.05 | W -1.08 | N -0.99 | P -1.35 | L -0.53 | Q -1.06 | V -0.47 | Y -0.99
H120: V -0.04 | D -0.59 | Y 0.03 | I 0.16 | Q -0.03 | F 0.08 | W 0.14 | C 0.35 | E -0.09 | L 0.39 | P -1.27 | A -0.12 | S 0.28 | R 0.35 | N 0.06 | G -1.08 | K -0.13 | T 0.44 | M -0.63
Q112: N -1.32 | A -0.21 | H 0.02 | T -0.79 | G -0.59 | S -0.17 | K -0.1 | D -0.16 | V -0.18 | I 0.03 | P -1.14 | C -0.81 | F -0.97 | L -0.73 | R 0.07 | M -0.17 | E -0.38 | W -0.83 | Y -0.7
D115: F -1.29 | H -0.53 | C -1.36 | I -0.89 | G -1.39 | N -0.27 | W -1.77 | E -0.54 | L -1.17 | V -0.75 | M -1.51 | S -1.55 | T -1.39 | A -1.73 | Y -0.03 | R -1.16 | Q -0.98 | K -0.97 | P -1.39
V113: M -0.22 | E -0.5 | H -0.84 | I 0.04 | C -0.61 | G -0.67 | Y -0.42 | Q -0.79 | W -1.16 | D -0.21 | N -0.49 | R -0.07 | S -0.27 | K 0.32 | A -0.4 | F -0.38 | P 0.22 | T -0.1 | L -0.01
S114: M -0.25 | Y -1.47 | F -0.89 | E -0.49 | L -1.15 | T -0.37 | H -1.62 | P -0.77 | N -0.49 | R -1.39 | I 0.12 | G -0.7 | V -0.22 | A 0.55 | C 0.01 | W -0.55 | K -1.22 | D -1.53 | Q -1.66
K111: W 0.03 | M -0.31 | G -1.08 | F -0.85 | N -0.45 | S -1.07 | I -0.61 | R -0.25 | Y -0.7 | P -1.47 | L -0.35 | V -0.57 | H -0.03 | C 0.01 | E -0.76 | T -0.37 | Q -1 | D -0.84 | A -1.04
